These results are taken from patent US20260167721A1 (ABLEXIS, published 2026).

Experiment [1] concerns the target T1, recombinant CD3 proteins (UniProt P07766 23-126).
T1 construct: elsewhere it uses human CD3 E/D and E/G heterodimers
As to the kind of experiment: Octet BLI, recombinant CD3; Full R^2 0.966.

Experiment [2] deals with T1, recombinant CD3 proteins. As to the kind of experiment: Octet BLI, recombinant CD3; Full R^2 0.990.
The target of experiment [3] is T1, recombinant CD3 proteins. The experiment is described as follows: Octet BLI, recombinant CD3; Full R^2 0.9554.
The target of experiment [4] is T1, recombinant CD3 proteins. The experiment is described as follows: Octet BLI, recombinant CD3; Full R^2 0.603*.
The target in experiment [5] is T1, recombinant CD3 proteins. As to the kind of experiment: Octet BLI, recombinant CD3; Full R^2 0.974.
In experiment [6] the target is T1, recombinant CD3 proteins. As to the kind of experiment: Octet BLI, recombinant CD3; Full R^2 0.984.
Experiment [7] addresses T1, recombinant CD3 proteins. As to the kind of experiment: Octet BLI, recombinant CD3; Full R^2 0.989.
The target of experiment [8] is T1, recombinant CD3 proteins. The experiment is described as follows: Octet BLI, recombinant CD3; Full R^2 0.9991.
The target in experiment [9] is T1, recombinant CD3 proteins. As to the kind of experiment: Octet BLI, recombinant CD3; Full R^2 0.9823.

T1 sequence (P07766 23-126): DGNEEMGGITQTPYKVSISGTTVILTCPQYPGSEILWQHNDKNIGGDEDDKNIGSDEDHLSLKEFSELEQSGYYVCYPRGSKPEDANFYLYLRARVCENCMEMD

B1: CD3 × CD33-BspAb95 (bispecific antibody)
chain 1: NFMLTQPHSVSESPGKTVTISCTRSSGSIASNYVQWYQQRPGSSPTTVIYEDNQRSSGVPDRFSGSIDSSSNSASLTISGLKTEDEADYYCQSYDRSNRVFGCGTKLTVLGGGGSGGGGSGGGGSGGGGSEVQLVESGGGLVKPGGSLRLSCSASGFTFSTYTMNWVRQAPGKCLEWVSSISKSSSYIYYTDSVKGRFTISRDNAKNSLYLQMNSLRAEDTAVYYCARERRTLAFDIWGQGTMVTVSSDKTHTCPPCPAPEFEGGPSVFLFPPKPKDTLMISRTPEVTCVVVDVSHEDPEVKFNWYVDGVEVHNAKTKPREEQYNSTYRVVSVLTVLHQDWLNGKEYKCKVSNKALPASIEKTISKAKGQPREPQVYTLPPCREEMTKNQVSLWCLVKGFYPSDIAVEWESNGQPENNYKTTPPVLDSDGSFFLYSKLTVDKSRWQQGNVFSCSVMHEALHNHYTQKSLSLSPGK
chain 2: EVQLVQSGAEVKKPGSSVKVSCKASGYTITDSNIHWVRQAPGQSLEWIGYIYPYNGGTDYNQKFKNRATLTVDNPTNTAYMELSSLRSEDTAFYYCVNGNPWLAYWGQGTLVTVSSASTKGPSVFPLAPSSKSTSGGTAALGCLVKDYFPEPVTVSWNSGALTSGVHTFPAVLQSSGLYSLSSVVTVPSSSLGTQTYICNVNHKPSNTKVDKRVEPKSCDKTHTCPPCPAPEFEGGPSVFLFPPKPKDTLMISRTPEVTCVVVDVSHEDPEVKFNWYVDGVEVHNAKTKPREEQYNSTYRVVSVLTVLHQDWLNGKEYKCKVSNKALPASIEKTISKAKGQPREPQVCTLPPSREEMTKNQVSLSCAVKGFYPSDIAVEWESNGQPENNYKTTPPVLDSDGSFFLVSKLTVDKSRWQQGNVFSCSVMHEALHNRFTQKSLSLSPGK
chain 3: DIQLTQSPSTLSASVGDRVTITCRASESLDNYGIRFLTWFQQKPGKAPKLLMYAASNQGSGVPSRFSGSGSGTEFTLTISSLQPDDFATYYCQQTKEVPWSFGQGTKVEVKRTVAAPSVFIFPPSDEQLKSGTASVVCLLNNFYPREAKVQWKVDNALQSGNSQESVTEQDSKDSTYSLSSTLTLSKADYEKHKVYACEVTHQGLSSPVTKSFNRGEC
On to B1, for which, in experiment [1], the Kd was determined as 8.44 nM, the koff is 0.00457 s⁻¹ and the kon was 542000 M⁻¹ s⁻¹.

B2: CD3 × CD33-BspAb115 (bispecific antibody)
chain 1: NFMLTQPHSVSESPGKTVTISCTRTSGSIASNYVQWYQQRPGSSPTTVIYEDNQRPSGVPDRFSGSIDSSSNSASLTISGLKTEDEAAYYCQSYDRSNRVFGCGTKLTVLGGGGSGGGGSGGGGSGGGGSQVQLQESGPGLVKPSETLSLTCTVSGGSISSYYWSWIRQPAGKCLEWIGRIYTSGSTKYNPSLKSRVTMSVDTSKNQFSLKLISVTAADTAVYFCARERIRDLYFDYWGQGTLVTVSSDKTHTCPPCPAPEFEGGPSVFLFPPKPKDTLMISRTPEVTCVVVDVSHEDPEVKFNWYVDGVEVHNAKTKPREEQYNSTYRVVSVLTVLHQDWLNGKEYKCKVSNKALPASIEKTISKAKGQPREPQVYTLPPCREEMTKNQVSLWCLVKGFYPSDIAVEWESNGQPENNYKTTPPVLDSDGSFFLYSKLTVDKSRWQQGNVFSCSVMHEALHNHYTQKSLSLSPGK
chain 2: B1 chain 2
chain 3: B1 chain 3
In the case of B2, in experiment [2], the Kd stood at 16.2 nM, the koff was found to be 0.00402 s⁻¹ and the kon amounted to 249000 M⁻¹ s⁻¹.

B3: CD3 × CD33-BspAb98 (bispecific antibody)
chain 1: NFMLTQPHSVSESPGKTVTISCTRSSGSIASNYVQWYQQRPGSSPTTVIYEDNQRPSGVPDRFSGSIDSSSNSASLTISGLKTEDEADYYCQSYDSSNRVFGCGTKLTVLGGGGSGGGGSGGGGSGGGGSEVHLVESGGGLVKPGGSLRLSCAASGFTFSRYSMNWVRQAPGKCLEWVSSISRSSSYIYYADSVKGRFTISRDNAKNSLYLQMNSLRAEDTAVYYCAREPRTLGMDYWGQGILVTVSSDKTHTCPPCPAPEFEGGPSVFLFPPKPKDTLMISRTPEVTCVVVDVSHEDPEVKFNWYVDGVEVHNAKTKPREEQYNSTYRVVSVLTVLHQDWLNGKEYKCKVSNKALPASIEKTISKAKGQPREPQVYTLPPCREEMTKNQVSLWCLVKGFYPSDIAVEWESNGQPENNYKTTPPVLDSDGSFFLYSKLTVDKSRWQQGNVFSCSVMHEALHNHYTQKSLSLSPGK
chain 2: B1 chain 2
chain 3: B1 chain 3
In the case of B3, in [3], the Kd was found to be 5.1 nM, the koff amounted to 0.00333 s⁻¹ and the kon stood at 653000 M⁻¹ s⁻¹.

B4: CD3 × CD33-BspAb99 (bispecific antibody)
chain 1: not shown
chain 2: B1 chain 2
chain 3: B1 chain 3
With B4, in [4], the Kd was determined as 30.7 nM, the koff stood at 0.00421 s⁻¹ and the kon worked out at 137000 M⁻¹ s⁻¹.

B5: CD3 × CD33-BspAb100 (bispecific antibody)
chain 1: EVQLVESGGGLVKPGGSLRLSCAASGFTFSNYYMNWVRQAPGKCLERVSSISSSSNYIYYADSVKGRFTISRDNAKNSLYLQMNSLRAEDTAVYYCARDRRELPLDYWGQGTVVTVSSGGGGSGGGGSGGGGSGGGGSSYELTQPPSVSVSPGQTARITCSGDALPKKYAYWYQQKSGQAPVLVIYEDSKRPSGIPERFSGSSSGTMATLTISGAQVEDEADYYCYSTDSSGNHWVFGCGTKLTVLDKTHTCPPCPAPEFEGGPSVFLFPPKPKDTLMISRTPEVTCVVVDVSHEDPEVKFNWYVDGVEVHNAKTKPREEQYNSTYRVVSVLTVLHQDWLNGKEYKCKVSNKALPASIEKTISKAKGQPREPQVYTLPPCREEMTKNQVSLWCLVKGFYPSDIAVEWESNGQPENNYKTTPPVLDSDGSFFLYSKLTVDKSRWQQGNVFSCSVMHEALHNHYTQKSLSLSPGK
chain 2: B1 chain 2
chain 3: B1 chain 3
On to B5, for which, in experiment [5], the Kd came to 235 nM, the koff came out at 0.0831 s⁻¹ and the kon was found to be 354000 M⁻¹ s⁻¹.

B6: CD3 × CD33-BspAb117 (bispecific antibody)
chain 1: NFMLTQPHSVSESPGKTVTISCTRSSGSIASNYVQWYQQRPGSSPTSVIYEDNQRPSGVPDRFSGSIDSSSNSASLTISGLKTEDEADYYCQSYDRSNRVFGCGTKLTVLGGGGSGGGGSGGGGSGGGGSEVQLVESGGGLVKPGGSLRLSCAASGLTFSTYSMNWVRQAPGKCLEWVSSISSSGSYVYYADSVKGRFTMSRDNAKNSLYLQMNSLRAEDTAVYYCARERRELLFDYWGQGTLVTVSSDKTHTCPPCPAPEFEGGPSVFLFPPKPKDTLMISRTPEVTCVVVDVSHEDPEVKFNWYVDGVEVHNAKTKPREEQYNSTYRVVSVLTVLHQDWLNGKEYKCKVSNKALPASIEKTISKAKGQPREPQVYTLPPCREEMTKNQVSLWCLVKGFYPSDIAVEWESNGQPENNYKTTPPVLDSDGSFFLYSKLTVDKSRWQQGNVFSCSVMHEALHNHYTQKSLSLSPGK
chain 2: B1 chain 2
chain 3: B1 chain 3
With B6, in experiment [6], the Kd was found to be 16.6 nM, the koff was 0.00554 s⁻¹ and the kon worked out at 335000 M⁻¹ s⁻¹.

B7: CD3 × CD33-BspAb118 (bispecific antibody)
chain 1: FMLTQPHSVSESPGKTVTISCTRSSGSIASNYVQWYQQRPGSSPTTVIYEDNQRPSGVPDRFSGSIDSSSNSASLTISGLQTEDEADYYCQSYDSSNRVFGCGTKLTVLGGGGSGGGGSGGGGSGGGGSEVQLVESGGGLVKPGGSLRLSCVASGFTFSRYSMNWVRQAPGKCLEWVSSISSSSRYTYYADSLKGRFIMSRDNAKNSLFLQMNSLRAEDTAVYYCARNLYNALDYWGQGTLVTVSSDKTHTCPPCPAPEFEGGPSVFLFPPKPKDTLMISRTPEVTCVVVDVSHEDPEVKFNWYVDGVEVHNAKTKPREEQYNSTYRVVSVLTVLHQDWLNGKEYKCKVSNKALPASIEKTISKAKGQPREPQVYTLPPCREEMTKNQVSLWCLVKGFYPSDIAVEWESNGQPENNYKTTPPVLDSDGSFFLYSKLTVDKSRWQQGNVFSCSVMHEALHNHYTQKSLSLSPGK
chain 2: B1 chain 2
chain 3: B1 chain 3
With B7, in experiment [7], the Kd was determined as 1.91 nM, the koff was 0.000767 s⁻¹ and the kon stood at 403000 M⁻¹ s⁻¹.

B8: CD3 × CD33-BspAb97 (bispecific antibody)
chain 1: SYELTQPPSVSVSPGQTARITCSGDALPKKYAYWYQQKSGQAPVLVIYEDSKRPSGIPERFSGSSSGTMATLTISGAQVEDEADYYCYSTDSSGNHWVFGCGTKLTVLGGGGSGGGGSGGGGSGGGGSEVQLVESGGGLVKPGGSLRLSCAASGFTFSNYYMNWVRQAPGKCLERVSSISSSSNYIYYADSVKGRFTISRDNAKNSLYLQMNSLRAEDTAVYYCARDRRELPLDYWGQGTVVTVSSDKTHTCPPCPAPEFEGGPSVFLFPPKPKDTLMISRTPEVTCVVVDVSHEDPEVKFNWYVDGVEVHNAKTKPREEQYNSTYRVVSVLTVLHQDWLNGKEYKCKVSNKALPASIEKTISKAKGQPREPQVYTLPPCREEMTKNQVSLWCLVKGFYPSDIAVEWESNGQPENNYKTTPPVLDSDGSFFLYSKLTVDKSRWQQGNVFSCSVMHEALHNHYTQKSLSLSPGK
chain 2: B1 chain 2
chain 3: B1 chain 3
As to B8, in experiment [8], the Kd came to 276 nM, the koff worked out at 0.0854 s⁻¹ and the kon is 309000 M⁻¹ s⁻¹.

B9: CD3 × CD33-BspAb96 (bispecific antibody)
chain 1: SYELTQPPSVSVSPGQTARITCSGDALPKKYAYWYQQKSGQAPVLVIYEDSKRPSGIPERFSGSSSGTMATLTISGAQVEDEADYYCYSTDSSGNHSWVFGCGTKLTVLGGGGSGGGGSGGGGSGGGGSEVQLVESGGGLVKPGGSLRLSCAASGFTFSSYSMNWVRQAPGKCLEWVSSVNSRGSYIYYADSVKGRFTISRDNAKDSLYLQMNSLRADDTAVYYCARDRRELLLDYWGQGTLVTVSSDKTHTCPPCPAPEFEGGPSVFLFPPKPKDTLMISRTPEVTCVVVDVSHEDPEVKFNWYVDGVEVHNAKTKPREEQYNSTYRVVSVLTVLHQDWLNGKEYKCKVSNKALPASIEKTISKAKGQPREPQVYTLPPCREEMTKNQVSLWCLVKGFYPSDIAVEWESNGQPENNYKTTPPVLDSDGSFFLYSKLTVDKSRWQQGNVFSCSVMHEALHNHYTQKSLSLSPGK
chain 2: B1 chain 2
chain 3: B1 chain 3
Take B9: in [9], the Kd was 573 nM, the koff was determined as 0.21 s⁻¹ and the kon was 366000 M⁻¹ s⁻¹.
